Square brackets hold non-standard residues; d marks the D form. Ends that are not written are not given here. Dmt = Cc1cc(O)cc(C)c1C[C@H](N)C(=O)O; NMeY = CN[C@@H](Cc1ccc(O)cc1)C(=O)O; NMeCha = CN[C@@H](CC1CCCCC1)C(=O)O; NMeF = CN[C@@H](Cc1ccccc1)C(=O)O; NMeI = CC[C@H](C)[C@H](NC)C(=O)O; NMePhg = CN[C@H](C(=O)O)c1ccccc1; β3hF = N[C@H](CC(=O)O)Cc1ccccc1; NMeNle = CCCC[C@H](NC)C(=O)O; NMeA = CN[C@@H](C)C(=O)O; Sar = CNCC(=O)O
B1: H-DMT-a-Ala-bhF-Sar-NH2 (peptide)
peptide: H-[Dmt][dA]A[β3hF][Sar]-NH2
SMILES: Cc1cc(O)cc(C)c1C[C@H](N)C(=O)N[C@H](C)C(=O)N[C@@H](C)C(=O)N[C@H](CC(=O)N(C)CC(N)=O)Cc1ccccc1
B2: H-DMT-(D)Asp-G-bhF-N(Me)-Phg-OH (peptide)
peptide: H-[Dmt][dD]G[β3hF][NMePhg]-OH
SMILES: Cc1cc(O)cc(C)c1C[C@H](N)C(=O)N[C@H](CC(=O)O)C(=O)NCC(=O)N[C@H](CC(=O)N(C)[C@H](C(=O)O)c1ccccc1)Cc1ccccc1
B3: H-DMT-(D)Thr-G-bhF-N(Me)-Ala-OH (peptide)
peptide: H-[Dmt][dT]G[β3hF][NMeA]-OH
SMILES: Cc1cc(O)cc(C)c1C[C@H](N)C(=O)N[C@@H](C(=O)NCC(=O)N[C@H](CC(=O)N(C)[C@@H](C)C(=O)O)Cc1ccccc1)[C@H](C)O
B4: H-DMT-(D)Asp-G-bhF-N(Me)-Cha-OH (peptide)
peptide: H-[Dmt][dD]G[β3hF][NMeCha]-OH
SMILES: Cc1cc(O)cc(C)c1C[C@H](N)C(=O)N[C@H](CC(=O)O)C(=O)NCC(=O)N[C@H](CC(=O)N(C)[C@@H](CC1CCCCC1)C(=O)O)Cc1ccccc1
B5: H-DMT-(D)Asp-G-bhF-N(Me)-Nle-OH (peptide)
peptide: H-[Dmt][dD]G[β3hF][NMeNle]-OH
B6: H-DMT-(D)Glu-G-bhF-N(Me)-Ile-OH (peptide)
peptide: H-[Dmt][dE]G[β3hF][NMeI]-OH
SMILES: CC[C@H](C)[C@@H](C(=O)O)N(C)C(=O)C[C@H](Cc1ccccc1)NC(=O)CNC(=O)[C@@H](CCC(=O)O)NC(=O)[C@@H](N)Cc1c(C)cc(O)cc1C
B7: H-DMT-(D)Glu-G-bhF-N(Me)-Ala-OH (peptide)
peptide: H-[Dmt][dE]G[β3hF][NMeA]-OH
SMILES: Cc1cc(O)cc(C)c1C[C@H](N)C(=O)N[C@H](CCC(=O)O)C(=O)NCC(=O)N[C@H](CC(=O)N(C)[C@@H](C)C(=O)O)Cc1ccccc1
B8: H-DMT-(D)Asp-G-bhF-N(Me)-Phe-OH (peptide)
peptide: H-[Dmt][dD]G[β3hF][NMeF]-OH
SMILES: Cc1cc(O)cc(C)c1C[C@H](N)C(=O)N[C@H](CC(=O)O)C(=O)NCC(=O)N[C@H](CC(=O)N(C)[C@@H](Cc1ccccc1)C(=O)O)Cc1ccccc1
B9: H-DMT-(D)Thr-G-bhF-N(Me)-Ile-OH (peptide)
peptide: H-[Dmt][dT]G[β3hF][NMeI]-OH
SMILES: CC[C@H](C)[C@@H](C(=O)O)N(C)C(=O)C[C@H](Cc1ccccc1)NC(=O)CNC(=O)[C@H](NC(=O)[C@@H](N)Cc1c(C)cc(O)cc1C)[C@H](C)O
B10: H-DMT-(D)Asp-G-bhF-Gly-NH2 (peptide)
peptide: H-[Dmt][dD]G[β3hF]G-NH2
SMILES: Cc1cc(O)cc(C)c1C[C@H](N)C(=O)N[C@H](CC(=O)O)C(=O)NCC(=O)N[C@H](CC(=O)NCC(N)=O)Cc1ccccc1
B11: H-DMT-(D)Glu-G-bhF-Sar-NH2 (peptide)
peptide: H-[Dmt][dE]G[β3hF][Sar]-NH2
SMILES: Cc1cc(O)cc(C)c1C[C@H](N)C(=O)N[C@H](CCC(=O)O)C(=O)NCC(=O)N[C@H](CC(=O)N(C)CC(N)=O)Cc1ccccc1
B12: H-DMT-(D)Asp-G-bhF-N(Me)-Tyr-OH (peptide)
peptide: H-[Dmt][dD]G[β3hF][NMeY]-OH
SMILES: Cc1cc(O)cc(C)c1C[C@H](N)C(=O)N[C@H](CC(=O)O)C(=O)NCC(=O)N[C@H](CC(=O)N(C)[C@@H](Cc1ccc(O)cc1)C(=O)O)Cc1ccccc1
B13: [DMT-((D)Ala)-Gly-(β-homoPhe)-(Sar)]2-Lys (peptide)
peptide: H-[Dmt][dA]G[β3hF][Sar]K
modifications: also: homodimer: two monomers joined at X5 through a lysine linker (Dimer A)
B14: [DMT-((D)Ala)-Gly-(β-homoPhe)-(NMe-Ala)]2-Lys (peptide)
peptide: H-[Dmt][dA]G[β3hF][NMeA]K
modifications: also: homodimer: two monomers joined at X5 through a lysine linker (Dimer A)
B15: [DMT-((D)Ala)-Gly-(β-homoPhe)-(NMe-Ile)]2-Lys (peptide)
peptide: H-[Dmt][dA]G[β3hF][NMeI]K
modifications: also: homodimer: two monomers joined at X5 through a lysine linker (Dimer A)
B16: [DMT-((D)Ala)-Gly-(β-homoPhe)-(Sar)-(D-Lys)]2-DIG (peptide)
peptide: H-[Dmt][dA]G[β3hF][Sar][dK]
modifications: not fully specified (C-terminus); printed as [DMT-((D)Ala)-Gly-(β-homoPhe)-(Sar)-(D-Lys)]2-DIG; also: homodimer: the two D-Lys joined through DIG linker (Dimer C)
B17: [DMT-((D)Ala)-Gly-(β-homoPhe)-(Sar)]2-(D-Lys) (peptide)
peptide: H-[Dmt][dA]G[β3hF][Sar][dK]
modifications: also: homodimer: two monomers joined at X5 through a D-lysine linker (Dimer A)

biological target: T1, µ-opioid receptor (MOR), Human-ORPM1 (human, UniProt P35372 1-400); test: cell-based or functional assay
T1 sequence (P35372 whole entry): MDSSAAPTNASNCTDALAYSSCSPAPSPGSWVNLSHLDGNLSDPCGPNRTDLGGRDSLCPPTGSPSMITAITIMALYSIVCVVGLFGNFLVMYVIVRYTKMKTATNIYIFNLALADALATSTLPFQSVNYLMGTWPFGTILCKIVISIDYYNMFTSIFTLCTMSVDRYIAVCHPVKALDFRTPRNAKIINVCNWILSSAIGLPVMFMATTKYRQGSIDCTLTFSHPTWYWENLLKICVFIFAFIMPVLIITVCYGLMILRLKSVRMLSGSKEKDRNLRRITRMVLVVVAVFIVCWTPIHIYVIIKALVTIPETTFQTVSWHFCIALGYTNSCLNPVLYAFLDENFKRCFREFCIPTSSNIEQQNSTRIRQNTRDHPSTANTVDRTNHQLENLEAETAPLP

Row | Binder | MOR EC50 [nM]
1 | B1 | ≤ 1

biological target: T2, δ-opioid receptor (DOR), Human-ORPD1 (human, UniProt P41143 1-372); test: cell-based or functional assay
T2 sequence (P41143 whole entry, stated change not applied): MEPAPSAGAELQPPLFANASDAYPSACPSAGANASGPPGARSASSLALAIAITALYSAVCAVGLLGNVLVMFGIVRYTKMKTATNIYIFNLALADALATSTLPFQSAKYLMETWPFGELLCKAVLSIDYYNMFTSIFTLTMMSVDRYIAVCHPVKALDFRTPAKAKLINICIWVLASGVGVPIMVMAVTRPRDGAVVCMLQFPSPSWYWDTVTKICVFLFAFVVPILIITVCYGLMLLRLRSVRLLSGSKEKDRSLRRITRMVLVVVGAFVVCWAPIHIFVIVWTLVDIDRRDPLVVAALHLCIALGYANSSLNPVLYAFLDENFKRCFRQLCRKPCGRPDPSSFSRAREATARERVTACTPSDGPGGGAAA

Row | Binder | DOR EC50 [nM]
2 | B1 | ≤ 1

biological target: T1, µ-opioid receptor (MOR), Human-ORPM1; test: cell-based or functional assay; remark: another data set of the same source

Row | Binder | MOR EC50 [nM]
3 | B2 | ≤ 1
4 | B3 | ≤ 1
5 | B4 | ≤ 1
6 | B5 | ≤ 1
7 | B6 | ≤ 10
8 | B7 | ≤ 10
9 | B8 | ≤ 1
10 | B9 | ≤ 1
11 | B10 | ≤ 1
12 | B11 | ≤ 1
13 | B12 | ≤ 1

biological target: T2, δ-opioid receptor (DOR), Human-ORPD1; test: cell-based or functional assay; remark: another data set of the same source

Row | Binder | DOR EC50 [nM]
14 | B2 | ≤ 1
15 | B3 | ≤ 1
16 | B4 | ≤ 1
17 | B5 | ≤ 1
18 | B6 | ≤ 1
19 | B7 | ≤ 1
20 | B8 | ≤ 1
21 | B9 | ≤ 1
22 | B10 | ≤ 1
23 | B11 | ≤ 10
24 | B12 | ≤ 1

biological target: T1, µ-opioid receptor (MOR), Human-ORPM1; test: cell-based or functional assay; remark: another data set of the same source

Row | Binder | MOR cAMP (EC50 nM) [nM]
25 | B1 | ≤ 1

biological target: T2, δ-opioid receptor (DOR), Human-ORPD1; test: cell-based or functional assay; remark: another data set of the same source

Row | Binder | DOR cAMP (EC50 nM) [nM]
26 | B1 | ≤ 1

biological target: T1, µ-opioid receptor (MOR), Human-ORPM1; test: cell-based or functional assay; remark: another data set of the same source

Row | Binder | MOR EC50 [nM]
27 | B13 | ≤ 1
28 | B14 | ≤ 1
29 | B15 | ≤ 10
30 | B16 | ≤ 10
31 | B17 | ≤ 10

biological target: T2, δ-opioid receptor (DOR), Human-ORPD1; test: cell-based or functional assay; remark: another data set of the same source

Row | Binder | DOR EC50 [nM]
32 | B13 | ≤ 1
33 | B14 | ≤ 1
34 | B15 | ≤ 10
35 | B16 | ≤ 10
36 | B17 | ≤ 10
